Reference: PMC3166298, “Phosphorylation Alters the Interaction of the Arabidopsis Phosphotransfer Protein AHP1 with Its Sensor Kinase ETR1” (PLoS ONE, 2011)
One block for each binder: values may come before it.

B1: ethylene receptor ethylene response 1 (ETR1), wild type (receptor, Arabidopsis, UniProt P49333 1-738, looked up)
chain: MEVCNCIEPQWPADELLMKYQYISDFFIAIAYFSIPLELIYFVKKSAVFPYRWVLVQFGAFIVLCGATHLINLWTFTTHSRTVALVMTTAKVLTAVVSCATALMLVHIIPDLLSVKTRELFLKNKAAELDREMGLIRTQEETGRHVRMLTHEIRSTLDRHTILKTTLVELGRTLALEECALWMPTRTGLELQLSYTLRHQHPVEYTVPIQLPVINQVFGTSRAVKISPNSPVARLRPVSGKYMLGEVVAVRVPLLHLSNFQINDWPELSTKRYALMVLMLPSDSARQWHVHELELVEVVADQVAVALSHAAILEESMRARDLLMEQNVALDLARREAETAIRARNDFLAVMNHEMRTPMHAIIALSSLLQETELTPEQRLMVETILKSSNLLATLMNDVLDLSRLEDGSLQLELGTFNLHTLFREVLNLIKPIAVVKKLPITLNLAPDLPEFVVGDEKRLMQIILNIVGNAVKFSKQGSISVTALVTKSDTRAADFFVVPTGSHFYLRVKVKDSGAGINPQDIPKIFTKFAQTQSLATRSSGGSGLGLAISKRFVNLMEGNIWIESDGLGKGCTAIFDVKLGISERSNESKQSGIPKVPAIPRHSNFTGLKVLVMDENGVSRMVTKGLLVHLGCEVTTVSSNEECLRVVSHEHKVVFMDVCMPGVENYQIALRIHEKFTKQRHQRPLLVALSGNTDKSTKEKCMSFGLDGVLLKPVSLDNIRDVLSDLLEPRVLYEGM
notes: Solubilised in beta-D-dodecylmaltoside; also called sensor kinase ETR1; AtETR1

Tests used:
[1] = target: the molecule itself; assay: fluorescence polarisation; Perrin plot of 2 uM ETR1 together with 0.2 uM dansylated AHP1; 0.2 M potassium phosphate pH 8.0, 0.05% beta-D-dodecylmaltoside, 10 mM beta-cyclodextrin; 5-25 C; apparent molecular weight
[2] = target: B1; assay: as above; settings: both partners purified
[3] = target: B1; assay: fluorescence polarisation; wild type ETR1 pre-incubated with 0.1 mM copper chloride, added to wild type AHP1-GFP; with 100 uM potassium cyanide; 50 mM Tris-HCl pH 7.5, 100 mM KCl, 0.1% beta-D-dodecylmaltoside, 0.002% PMSF; settings: both partners purified
[4] = target: B1; assay: fluorescence polarisation; wild type ETR1 pre-incubated with 0.1 mM copper chloride, added to wild type AHP1-GFP; with 100 uM ethephon; 50 mM Tris-HCl pH 7.5, 100 mM KCl, 0.1% beta-D-dodecylmaltoside, 0.002% PMSF; settings: both partners purified
[5] = target: B1; assay: fluorescence polarisation; control: wild type ETR1 and wild type AHP1-GFP with cyanide or ethephon but without the copper cofactor; same buffer; settings: both partners purified

Binder: B1
- stoichiometry N [1]: 2

- binding result [2]: binds
B2: dansylated AHP1 (natural protein, Arabidopsis, UniProt Q9ZNV9 1-154, looked up)
chain: MDLVQKQKSLQDYTKSLFLEGILDSQFLQLQQLQDESNPDFVSQVVTLFFQDSDRILNDLSLSLDQQVVDFKKVDPHVHQLKGSSSSIGAQRVKNACVVFRSFCEQQNVEACHRCLQQVKQEYYLVKNRLETLFKLEQQIVASGGMIPAVELGF
modifications: dansyl label (dansyl chloride; typical ratio of protein-dansyl labeling 1:4), positions not given
notes: Theoretical molecular weight printed as 18.3 kDa; also called AHP1 (dansylated, without GFP); source: recombinant, purified from the bacterial host, then dansylated

- Kd [3]: 9 µM
- Kd [4]: 7.7 µM
- Kd [5]: 1.4 µM
B3: AHP1-GFP(S65T), wild type Arabidopsis histidine-containing phosphotransfer protein 1 fused to green fluorescent protein (natural protein, UniProt Q9ZNV9 1-154, looked up)
chain: MDLVQKQKSLQDYTKSLFLEGILDSQFLQLQQLQDESNPDFVSQVVTLFFQDSDRILNDLSLSLDQQVVDFKKVDPHVHQLKGSSSSIGAQRVKNACVVFRSFCEQQNVEACHRCLQQVKQEYYLVKNRLETLFKLEQQIVASGGMIPAVELGF
notes: AHP1, Arabidopsis histidine-containing phosphotransfer protein 1; Theoretical molecular weight of AHP1-GFP printed as 45.6 kDa; also called wild type AHP1-GFP
